“Also recorded” adds a separate entry of the source.

The source of these data is patent US20110201105A1, “LACTATION-ASSOCIATED POLYPEPTIDES” (Dairy Australia Limited, priority 2007, published 2011).

In assay [1] the test system is bovine mammary epithelial cells. The experiment in a line: Cellular morphology assay, bovine mammary epithelial cells. The settings on record: 1:5 dilution of secreted polypeptide, 48 hours (FIG. 6). The format is cell-based. As for the experimental part: FIG. 6. Cellular morphology assay. To determine the ability of LAMs to influence cellular morphology, bovine mammary epithelial cells were plated onto a extracellular matrix and the cells were subsequently allowed to migrate to form mammospheres in the presence or absence of each LAM. The figure contains Panel A (Negative control) and Panels B to G (Presence of a LAM for which one LAM polypeptide is represented in one panel).
Candidate LAM polypeptides that are able to regulate the function and differentiation of the mammary gland were screened by culturing bovine mammary epithelium in the presence of a 1:5 dilution of the secreted polypeptide LAMs for 48 hours as described for the TGR assays in Example 4. Cells were examined microscopically for gross morphological changes and for their ability to induce cell differentiation.

A further assay has as its system ERK1/2. The assay can be described thus: ERK1/2 activation in Swiss 3T3 cells by bovine polypeptides. It is filed as cell-based. The settings on record: cell supernatants containing bovine polypeptide, listed as CAMP. As for the experimental part:
Swiss 3T3 cells were treated with cell supematants containing bovine TCN 1 polypeptide. […] An increase in relative fluorescence units over the control indicates ERK activation.
Aliquots of the CRC-IDP samples were used to activate HSC-2 cells in a 96 well plate. Confluent and serum-starved cells were presented with the samples at a final dilution of 1:2. Cells were also stimulated with an internal control for activation of cells (Stim=10% serum) or left unstimulated (unstim). After 10 minutes with the CRC-IDP samples or control stimulus, cells were lysed and assayed for ERK activation using TGR's proprietary assay technology (SureFire). FIG. 12 presents the results as the mean+/−SEm of 3 separate samples. The data is from a single experiment.

A further assay concerns HC11 cells. The experiment in a line: Cell growth with cathelicidins in HC11 cells. It is filed as cell-based, mouse. On the set-up: cell growth Rep. 1 / cell growth Rep. 2 / cell growth Rep. 3 / cell growth Rep. 4 / cell growth Mean: unit not given here. As to conditions: 72 hours. As for the experimental part: FIG. 2. Cellular growth assay with HC11 cells. Mouse mammary epithelial cells, HC11 cells, were grown in media conditioned with: mock transfection (control), LAM32, LAM32a or LAM32b for 72 hours. Samples were performed in triplicate and the cells from each triplicate counted in triplicate. […] LAM 32 is represented as set forth in SEQ ID NO: 188, and two splice variants thereof, designated LAM32a and 32b as set forth in SEQ ID NO: 215 and 207 respectively.
As shown in FIG. 2 equal numbers of mouse mammary HC11 cells were grown in the presence of either a negative control or tammar wallaby cathelicidin-associated polypeptide, namely LAM 32 (SEQ ID NO: 188), LAM 32a (SEQ ID NO: 215) or LAM 32b (SEQ ID NO: 207) in order to determine the effect of these LAMs on cellular growth.
HC11 cells were initially plated at 50 percent confluency and cultured for 72 hours in a 1:10 dilution of serum and antibiotic free Optimem and media conditioned with cathelicidin associated polypeptides. The medium was removed and then washed gently for 2 minutes with Mg^2+- and Ca^2+-free phosphate buffered saline (PBS), 0.05% Trypsin and 1:5000 Versene to disrupt cell aggregates. Cells were collected by scraping and washed twice by resuspension in complete medium followed by centrifugation. The cells were again resuspended and counted in triplicate using a Luber haemocytometer.
(§1) The cells were counted in triplicate using a Luber haemocytometer. The negative control was media alone (i.e. conditioned media […] insertless vector). The samples were deemed statistically significant using a t-test comparing the control with the sample if the values of cell growth were 2 standard deviations higher than the mean of the negative control.

The next assay relates to mouse ES cells. The experiment in a line: Cell growth with cathelicidins in mouse ES cells. As to conditions: 24 hours. Details: cell growth Rep. 1 / cell growth Rep. 2 / cell growth Rep. 3 / cell growth Mean: unit not given here. It is filed as cell-based. As for the experimental part:
Mouse ES cells were plated at 50 percent confluency and cultured for 24 hours in a 1:10 dilution of serum and antibiotic free Optimem and media conditioned with cathelicidin associated polypeptides. The medium was removed and then washed gently for 2 minutes with Mg^2+- and Ca^2+-free phosphate buffered saline 0.05% Trypsin and 1:5000 Versene to disrupt cell aggregates. Cells were collected by scraping and washed twice by resuspension in complete medium followed by centrifugation. The cells were again resuspended and counted in triplicate using a Luber haemocytometer.
as §1

The subject of another assay is chicks. The experiment in a line: Chick growth assay (in ovo injection, weight at hatching). It is filed as in vivo. As for the experimental part: FIG. 5. Chick growth assay by measuring weight. 10 LAMs (being bovine homologues having homology to specific Tammar ESTs), 3 known bovine cathelicidins, and four bovine cathelicidin variants were tested. Conditioned media containing a LAM polypeptides or bovine cathelicidins or variants thereof was diluted in a total of 1 ml of normal saline. Eggs on day 16 of incubation were injected with 1 ml of the media containing the into the broad end of the egg. Chicks were weighed on day of hatching. The overall condition of the chick was assessed including the possible presence of stumpy legs and/or loss of down feathers.
Conditioned media containing LAM polypeptides or bovine cathelicidins or variants thereof were diluted in a total of 1 ml of normal saline. Eggs on day 16 of incubation were injected in ovo with 1 ml of LAM polypeptides or bovine cathelicidins or variants thereof into the broad end of the egg. Chicks were weighed on day of hatching. Controls included saline only, or saline and 10 mg/ml of a peptide as a random peptide control.
As set out in Table 23, the left column indicates the polypeptide used in the assay while the right column contains chick weight in grams as a measurement of chick growth. Bolded numbers represent a chick(s) larger than the controls and more than 2 standard deviations from the mean. In addition, bolded numbers represent chicks that have been killed. The mean represents the weight of all the chicks tested within this experiment.

The next assay has as its system p38 MAPK. The assay can be described thus: p38 MAPK assay of inflammatory activity in RAW macrophage cells. The format is cell-based. As for the experimental part:
Plasmids containing Tammar wallaby LAMs were directionally cloned into the expression vector pCMV Sport 6.0, and then transfected into the human kidney cell line HK293. A total of 1 μg of LAM-containing plasmid DNA and 10 ng of pEGFP-C1 plasmid was introduced into 70% confluent HK293 cells in 2 cm^2 wells containing 500 ul of opti-MEM-1 media. Transfection success was assessed by observing green fluorescence of cells by fluorescent microscopy. After 48 hours conditioned media containing the secreted polypeptide was collected and frozen at −20° C. The media containing the secreted polypeptides was then used directly in a variety of bioactivity assays. For the assays described below, samples of secreted polypeptides were aliquoted into individual wells of 96 or 384 well plates and stored, prior to assaying, either frozen or lyophilized.
A negative control created by transfection with an insertless vector was used in all assays. For the assays described in Examples 4A, 4B, 4C and 4D results for samples were in the form of relative fluorescence units (RFU) as described herein. […] In some cases, RFU less than two standard deviations from the mean were considered significant if the LAM sample in question produced a positive result in another assay. […]
Activation of p38 MAPK was assessed in RAW macrophage cells. […]

Assay [2] has as its system mouse embryonic stem (ES) cells. The experiment in a line: Cellular differentiation assay, mouse ES cells with Oct4-βgal transgene. As to conditions: tammar wallaby polypeptides, LIF 1000 U/ml, 1:5 dilution, 48 hours (FIG. 7). The format is cell-based. As for the experimental part: FIG. 7. Cellular differentiation assay. To determine the ability of LAMs to influence cell differentiation, mouse embryonic stem (ES) cells were cultured in the presence of leukemia inhibitory factor (LIF) 1000 U/ml and the LAM in question a 1 in 5 dilution of the secreted polypeptides and cultured for 48 hours. […] This figure contains Panel A (Negative control) and Panels B to L (Presence of a LAM for which one LAM polypeptide is represented in one panel).
To determine the ability of LAMs to influence cellular differentiation, mouse embryonic stem (ES) cells were cultured in the presence of a leukemia inhibitory factor (LIF) 1000 U/ml and a 1:5 dilution of the secreted polypeptide LAMs for 48 hours.

The next assay concerns trefoil 1. The assay can be described thus: Induction of trefoil proteins in AGS cells (peroxidase immunodetection). The format is cell-based, human. As for the experimental part:
FIGS. 11A and B: Peroxidase assay for trefoil activity. Supematants of HEK293 cells expressing tammar mammary clones were applied to the human gastric epithelial cell line, AGS, for 48 hours. The resultant AGS cell conditioned media containing stimulated AGS cell secreted proteins, and the AGS cells, were lysed. Samples of the AGS cell secreted proteins and cell lysates, and a recombinant positive control were transferred to a solid support and probed using a rabbit anti-trefoil 1 antibody and a secondary goat anti-rabbit antibody conjugated to horse radish peroxidase was used to detect the trefoil 1. A: Detection of secreted trefoil 1 in supematants from stimulated AGS cells. B: Detection of expression of trefoil 1 in stimulated AGS cell lysate samples.
In addition, supernatants of HEK293 cells expressing tammar mammary clones were applied to the human gastric epithelial cell line, AGS, for 48 hours. The resultant AGS cell conditioned media containing stimulated AGS cell secreted proteins (i.e. supernatant) were collected and the AGS cells were lysed. […]

B1: LAM 32: Cathelicidin antimicrobial peptide; tammar wallaby polypeptide SEQ ID NO 188, bovine SEQ ID NO 220 (protein)
chain: QALSYREAVLRAVDQLNEQSSEPNIYRLLELDQPPQDDEDPDSPKRVSFRVKETVCSRTTQQPPEQCDFKENGLLKRCEGTVTLDQVRGNFDITCNNHQSIRITKQPWAPPQAARLCRIVVIRVCR
In the case of B1, in assay [1], the “influence on cellular morphology” value was “induced a significant change in quaternary structure and/or cellular morphology”. In addition, in the assay with ERK1/2, the ERK1/2 activation result is listed as “activates ERK1/2; also recorded: ERK1/2 activation”. Further, the “cell growth Rep. 1” value turned out to be 0.985 in the assay with HC11 cells (1:10 dilution conditioned media, -ve control 0.727) and 0.721 in the assay on mouse ES cells (1:10 dilution conditioned media, -ve control 0.34). The figures for the “cell growth Rep. 2” value in the assay with HC11 cells (-ve control 0.76) and with mouse ES cells (-ve control 0.474) were 0.927 and 0.548, respectively. Also, the “cell growth Rep. 3” value with HC11 cells (-ve control 0.786) was determined as 0.968; in the assay with mouse ES cells (-ve control 0.352) it was 0.784. Also, the “cell growth Rep. 4” value in the assay on HC11 cells (-ve control 0.808) worked out at 1.026. The “cell growth Mean” value in the assay on HC11 cells (-ve control mean 0.77025) came to 0.9765; with mouse ES cells (-ve control mean 0.388666667), 0.6843. For the same molecule, the “cell growth versus control (significance)” value in the assay with HC11 cells (P<0.05 t-test) is recorded as “significantly more cells”.

B2: LAM 19: EBP: Emopamil binding protein (sterol isomerase); tammar polypeptide SEQ ID NO 49, bovine SEQ ID NO 109 (protein)
chain: MTTNTSPMHPYWPRHLRLDNFVPNDYPTWHILAGLFSVSGVLVVATWLLSGRAAVVPLGTWRRLSLCWFAVCGFIHLVIEGWFSLYHADLLGDQAILSQLWKEYAKGDSRYILNDNFMICMETVTAYLWGPLSLWVVIAFLRHQPLRFVLQLVVSMGQVYGDVLYFLTEYRDGFQHGELGHPLYFWFYFVFLNSLWLVVPGLLILDSIKQLAHAQSILDAKAPKAKSKQXLKSDELGLNTGYEELSTYQKIPILAPTGRKDKLN
modifications: X: residue not identified in the source; ends and bridges not checked
Take B2: the “chick size versus controls” value in the assay with chicks (body weight relative to mean/median of all chicks tested) is recorded as “falls just outside 2 standard deviations from the median of chick weights”. Further, the Chick weight with chicks (bovine polypeptides in conditioned media, 1 ml in ovo on day 16 of incubation, weighed on day of hatching, Saline 51.0) is 57.1 grams. For the same molecule, the “RFU (p38 activation, pro-inflammatory activity)” value in the assay with p38 MAPK (30 minutes, Mean RFU 12253, SD RFU 7395, negative control 11004 RFU) was 66112 RFU. For the same molecule, the “pro-inflammatory activity (RFU significantly above the mean)” value in the assay with p38 MAPK (text summary of Tables 12 and 13) was “pro-inflammatory activity”. The cellular differentiation result in assay [2] is “induced cellular differentiation”. The “Trefoil-inducing activity: Function” value in the assay with trefoil 1 (48 hours, trefoil 1 in supernatant (secretion) and cell lysate (expression)) is “enhanced expression and secretion”. Further, the “trefoil 1 expression and/or secretion” value in the assay with trefoil 1 (Table 16) is listed as “enhance trefoil 1 expression in AGS cells as well as enhance the secretion of trefoil 1”.
